According to article PMC10306287, “Computational design of the temperature optimum of an enzyme reaction” (Science Advances, 2023):

What was measured:
AHA (WT AHA α-amylase) = target: T1, AHA (WT AHA α-amylase) (Pseudoalteromonas haloplanktis, UniProt P29957); assay: steady-state hydrolysis, 96-well spectrophotometer, nonlinear regression; assay type: biochemical; conditions: 25 °C, PBS, 60 nM enzyme
T1 construct: gene amy; mature peptide residues 25-477, signal peptide excluded, codon-optimised in pET-22b(+), E. coli NiCo21(DE3), HisTrap purified (tag not described)

[1] = substrate: O=[N+]([O-])c1ccc(O[C@H]2O[C@H](CO)[C@@H](O[C@H]3O[C@H](CO)[C@@H](O[C@H]4O[C@H](CO)[C@@H](O)[C@H](O)[C@H]4O)[C@H](O)[C@H]3O)[C@H](O)[C@H]2O)c(Cl)c1; assay: as above; assay type: biochemical, Pseudoalteromonas haloplanktis; conditions: 25 °C, PBS, 60 nM enzyme

Km (AHA (WT AHA α-amylase)) [µM]	Molecule	Km [1] [µM]	kcat [1] [s⁻¹]
2240 ± 220	O=[N+]([O-])c1ccc(O[C@H]2O[C@H](CO)[C@@H](O[C@H]3O[C@H](CO)[C@@H](O[C@H]4O[C@H](CO)[C@@H](O)[C@H](O)[C@H]4O)[C@H](O)[C@H]3O)[C@H](O)[C@H]2O)c(Cl)c1 [2-chloro-4-nitrophenyl-α-D-maltotrioside]	–	–
–	AHA (WT AHA α-amylase) (Pseudoalteromonas haloplanktis) (protein, mature peptide residues 25-477, signal peptide excluded, codon-optimised in pET-22b(+), E. coli NiCo21(DE3), HisTrap purified (tag not described)) TPTTFVHLFEWNWQDVAQECEQYLGPKGYAAVQVSPPNEHITGSQWWTRYQPVSYELQSRGGNRAQFIDMVNRCSAAGVDIYVDTLINHMAAGSGTGTAGNSFGNKSFPIYSPQDFHESCTINNSDYGNDRYRVQNCELVGLADLDTASNYVQNTIAAYINDLQAIGVKGFRFDASKHVAASDIQSLMAKVNGSPVVFQEVIDQGGEAVGASEYLSTGLVTEFKYSTELGNTFRNGSLAWLSNFGEGWGFMPSSSAVVFVDNHDNQRGHGGAGNVITFEDGRLYDLANVFMLAYPYGYPKVMSSYDFHGDTDAGGPNVPVHNNGNLECFASNWKCEHRWSYIAGGVDFRNNTADNWAVTNWWDNTNNQISFGRGSSGHMAINKEDSTLTATVQTDMASGQYCNVLKGELSADAKSCSGEVITVNSDGTINLNIGAWDAMAIHKNAKLNTSSAS	2810 ± 110	1.775 ± 0.11
